Values belong to the molecule of their own block, whether it stands above or below them.
Tests used:
[1] = system: CEACAM5-positive MKN45 cells; experiment: In vitro cytotoxicity test using CEA-V2122 and anticancer agent-labeled modified biotin (Cell Counting Kit-8); type: cell-based, human; settings: complex of CEA-V2122 and Compound 5, molar ratio 1:2; 1.0E-11 to 6.0E-07 final molar concentration; 48 hours; FIG. 8
Experimental: (§1) A cytotoxicity test was carried out using an anticancer agent-labeled modified biotin. The anticancer agent-labeled modified biotin is a compound described as Compound 5. For the assay, first, CEACAM5-positive MKN45 cells and CEACAM5-negative DLD1 cells were seeded on a 96-well plate for cell culture, so that the cell count became 5×10^3 cells/well and the amount of the culture solution became 50 μL/well, and thereafter, the cells were cultured overnight. A solution containing a complex of CEA-V2122 and a […] modified biotin was prepared by mixing CEA-V2122 and Compound 5 to a molar ratio of 1:2, and then incubating the mixture at room temperature for 10 minutes. […]
(§2) To the cells that had been cultured overnight, the complex serial dilution solutions were added in an amount of 50 μL/well to each well of the plate to the final molar concentration (1.0E-11, 3.0E-11, 9.1E-11, 2.7E-10, 8.2E-10, 2.5E-09, 7.4E-09, 2.2E-08, 6.7E-08, 2.0E-07, and 6.0E-07). […] The dosage and administration were determined by the instruction manuals included with the kit, and after the addition of the reagent, the mixture was incubated for 1.5 hours at 37° C. in a CO2 incubator. Thereafter, the absorbance at 450 nm was measured, and a mean value was then calculated, followed by background collection. […]

[2] = system: CEACAM5-negative DLD1 cells; experiment: as above; type: cell-based, human; settings: complex of CEA-V2122 and Compound 5, molar ratio 1:2; 1.0E-11 to 6.0E-07 final molar concentration; 48 hours; FIG. 8
Experimental: as §1, §2

[3] = molecular target: T1, Recombinant Human CEACAM-5/CD66e Protein, CF (R & D SYSTEMS) (human, UniProt P06731 35-685); experiment: SPR, Biacore T200; CEACAM5 immobilized on CM5 chip, CEA-V2122 as analyte; single-cycle kinetics, bivalent analysis fit, KD=kd1/ka1
T1 construct: Bought recombinant protein, immobilized on a CM5 chip by amine coupling (279 RU); also called antigen CEACAM5
T1 sequence (looked up): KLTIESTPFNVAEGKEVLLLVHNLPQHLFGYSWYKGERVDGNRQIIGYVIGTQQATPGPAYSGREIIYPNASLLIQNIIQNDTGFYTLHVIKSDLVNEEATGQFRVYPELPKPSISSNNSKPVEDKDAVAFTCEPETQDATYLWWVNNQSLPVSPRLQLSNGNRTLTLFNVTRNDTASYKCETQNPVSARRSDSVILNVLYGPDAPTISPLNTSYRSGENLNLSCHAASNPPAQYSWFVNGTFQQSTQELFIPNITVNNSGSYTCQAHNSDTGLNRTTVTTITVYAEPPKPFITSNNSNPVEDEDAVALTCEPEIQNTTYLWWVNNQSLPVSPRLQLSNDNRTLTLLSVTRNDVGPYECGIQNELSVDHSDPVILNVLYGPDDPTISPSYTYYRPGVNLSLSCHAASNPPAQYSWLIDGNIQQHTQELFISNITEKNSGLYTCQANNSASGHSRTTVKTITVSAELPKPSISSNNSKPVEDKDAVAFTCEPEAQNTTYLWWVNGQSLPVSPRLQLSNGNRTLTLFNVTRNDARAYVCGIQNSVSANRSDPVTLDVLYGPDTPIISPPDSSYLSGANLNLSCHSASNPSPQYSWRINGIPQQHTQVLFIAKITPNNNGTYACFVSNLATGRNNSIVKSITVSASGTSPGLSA
Experimental: (§3) The affinity of CEA-V2122 for the antigen CEACAM5 was evaluated using a surface plasmon resonance (SPR) measuring device, Biacore T200 (GE Healthcare Life Sciences). Specifically, Recombinant Human CEACAM-5/CD66e Protein, CF (R & D SYSTEMS) was immobilized on Sensor Chip CM5 (GE Healthcare Life Sciences) using an amine-coupling kit (GE Healthcare Lite Sciences). The final amount of the ligand immobilized was 279 RU. Moreover, about the purified CEA-V2122, two-fold serial dilutions from 1E-08 to 6.25E-10 M were prepared as analytes. Regarding interaction analysis, data were obtained by single-cycle kinetics analysis.

[4] = molecular target: T2, Recombinant Human CEACAM-5/CD66e Protein (Homo sapiens, UniProt P06731); experiment: SPR (Biacore T200) affinity of CEA-V2122 for the antigen CEACAM5; type: binding
T2 construct: purchased R & D SYSTEMS
T2 sequence (P06731 35-676): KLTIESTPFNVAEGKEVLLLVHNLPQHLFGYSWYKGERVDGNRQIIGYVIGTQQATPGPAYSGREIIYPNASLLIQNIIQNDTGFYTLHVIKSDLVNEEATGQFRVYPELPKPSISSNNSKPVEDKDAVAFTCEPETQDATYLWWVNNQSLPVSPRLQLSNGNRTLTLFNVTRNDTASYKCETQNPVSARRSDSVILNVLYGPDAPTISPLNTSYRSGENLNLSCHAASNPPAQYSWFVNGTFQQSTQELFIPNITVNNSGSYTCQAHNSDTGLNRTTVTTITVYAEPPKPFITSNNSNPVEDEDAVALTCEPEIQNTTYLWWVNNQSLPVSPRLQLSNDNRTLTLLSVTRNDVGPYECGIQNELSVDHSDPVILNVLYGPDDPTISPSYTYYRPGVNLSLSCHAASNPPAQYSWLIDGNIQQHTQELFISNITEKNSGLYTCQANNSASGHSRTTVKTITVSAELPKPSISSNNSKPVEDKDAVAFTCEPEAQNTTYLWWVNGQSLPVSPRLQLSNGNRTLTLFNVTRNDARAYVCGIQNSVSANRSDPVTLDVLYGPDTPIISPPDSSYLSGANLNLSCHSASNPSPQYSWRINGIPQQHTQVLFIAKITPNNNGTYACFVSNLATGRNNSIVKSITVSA
Experimental: as §3, with “analysis. Using Biacore T200 Evaluation Software, version 2.0, the obtained data were subjected to curve fitting in a bivalent analysis mode, and the following values were obtained: ka1−3.208E+5, and kd1=3.461E-7.” for “analysis.”

CEACAM5 = molecular target: T3, CEACAM5 (Homo sapiens, UniProt P06731); experiment: Cell staining of CEACAM5-expressing cell line using FITC-labeled CEA-V2122; type: cell-based
T3 construct: endogenous in cells; host or cells: MKN-45 (CEACAM5-positive); DLD1 (CEACAM5-negative control)
T3 sequence (P06731 35-685 limits assumed): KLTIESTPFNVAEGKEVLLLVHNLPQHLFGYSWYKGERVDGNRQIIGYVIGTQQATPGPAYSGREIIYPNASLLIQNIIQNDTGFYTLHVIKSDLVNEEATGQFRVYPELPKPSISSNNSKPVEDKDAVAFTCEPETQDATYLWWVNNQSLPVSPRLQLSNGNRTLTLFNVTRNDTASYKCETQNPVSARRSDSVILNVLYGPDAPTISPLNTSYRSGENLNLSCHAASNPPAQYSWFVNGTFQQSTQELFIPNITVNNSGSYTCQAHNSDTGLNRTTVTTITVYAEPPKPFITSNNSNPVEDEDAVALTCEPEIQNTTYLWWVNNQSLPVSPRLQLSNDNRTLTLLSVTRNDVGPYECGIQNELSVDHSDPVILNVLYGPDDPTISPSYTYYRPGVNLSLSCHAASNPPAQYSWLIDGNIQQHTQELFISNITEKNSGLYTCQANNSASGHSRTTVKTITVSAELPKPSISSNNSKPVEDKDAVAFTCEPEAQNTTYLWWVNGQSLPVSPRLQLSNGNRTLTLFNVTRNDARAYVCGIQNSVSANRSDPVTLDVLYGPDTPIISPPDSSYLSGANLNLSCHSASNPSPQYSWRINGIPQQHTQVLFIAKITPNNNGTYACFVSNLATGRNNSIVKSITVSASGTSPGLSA
Experimental: In order to stain a CEACAM5 expression-positive cancer cell line, FITC labeling was carried out on the cell line, using 100 μg of a purified CEA-V2122 protein. Specifically, labeling was carried out using Fluorescein Labeling Kit—NH2 (DOJINDO LABORATORIES) in accordance with the dosage and administration described in the operating manual included with the kit, and the obtained product was defined to be CEA-V2122-FITC. Specific staining of the CEACAM5 expression-positive cancer cell line is as follows. That is, CEACAM5-positive human stomach cancer-derived MKN-45 cells and CEACAM5-negative human colon cancer-derived DLD1 cells were each seeded on a CELLSTAR, μClear, 96-well plate (Greiner) to a cell density of 2.0×10^4 cells/well, and thereafter, the cells were cultured overnight. Subsequently, a culture solution containing 20 nM CEA-V2122-FITC and 1 μM Hoechist was added to the 96-well plate to a concentration of 100 μL/well, and the obtained mixture was then reacted at 4° C. for 30 minutes. Thereafter, each image was taken using In Cell Analyzer 6000 (GE Healthcare Life Sciences).

[5] = CEACAM5 immobilized on Sensor Chip CM5 (279 RU), single-cycle kinetics, bivalent analysis mode

Molecule: COC(=O)c1cc2c([nH]1)C(=O)C=C1N(C(=O)c3cc4cc(OC)c(OCCNC(=O)[C@@H](NC(=O)[C@H](C)NC(=O)OCCOCCOCCn5cc(CCC(=O)NCCOCCOCCN(CC(=O)NCCCCNC(=O)CCCC[C@@H]6SC[C@@H]7NC(=N)N[C@@H]76)CC(=O)NCCCCNC(=O)CCCC[C@@H]6SC[C@@H]7NC(=N)N[C@@H]76)nn5)C(C)C)c(OC)c4[nH]3)C[C@H]3CC123 (some centres unmarked) [Compound 5]
cell growth ratio to control [1]: suppression of the cell growth of the CEACAM5-positive MKN45 cells was confirmed in a complex concentration-dependent manner
cell growth ratio to control [2]: such a concentration-dependent effect of suppressing the cell growth of the CEACAM5-negative DLD1 cells was not confirmed

Kd [3]: 1.08 pM
B1: CEA-V2122 (scFv)
chain: QVKLEQSGAEVVKPGASVKLSCKASGFNIKDSYMHWLRQGPGQRLEWIGWIDPENGDTEYAPKFQGKATFTTDTSANTAYLGLSSLRPEDTAVYYCNEGTPTGPYYFDYWGQGTLVTVSSGGGGSGGGGSGGGGSENVLTQSPSSMSVSVGDRVNIACSASSSVPYMHWLQQKPGKSPKLLIYLTSNLASGVPSRFSGSGSGTDYSLTISSVQPEDAATYYCQQRSSYPLTFGGGTKLEIKGGGGSGGGGAEAGITGTWSDQLGDTFIVTAGADGALTGTYENAVGGAESRYVLTGRYDSAPATDGSGTALGWTVAWKNNSKNAHSATTWSGQYVGGADAKINTQWLLTSGTTNANAWKSTLVGHDTFTKVKPSAASHHHHHH
notes: Fusion of an anti-CEACAM5 scFv with the mutant streptavidin V2122; also called scFv-V2122; CEA-V2122 fusion protein

ka1 [4, 5]: 3.208E+5
kd1 [4, 5]: 3.461E-7
KD=kd1/ka1 ([4]; bivalent analysis, KD=kd1/ka1): 1.078E−12
B2: CEA-V2122: scFv-type anti-CEACAM5 antibody bound with mutant streptavidin V2122 via an amino acid linker (GGGGSGGGG), SEQ ID NO: 3 (protein)
chain: QVKLEQSGAEVVKPGASVKLSCKASGFNIKDSYMHWLRQGPGQRLEWIGWIDPENGDTEYAPKFQGKATFTTDTSANTAYLGLSSLRPEDTAVYYCNEGTPTGPYYFDYWGQGTLVTVSSGGGGSGGGGSGGGGSENVLTQSPSSMSVSVGDRVNIACSASSSVPYMHWLQQKPGKSPKLLIYLTSNLASGVPSRFSGSGSGTDYSLTISSVQPEDAATYYCQQRSSYPLTFGGGTKLEIKGGGGSGGGGAEAGITGTWSDQLGDTFIVTAGADGALTGTYENAVGGAESRYVLTGRYDSAPATDGSGTALGWTVAWKNNSKNAHSATTWSGQYVGGADAKINTQWLLTSGTTNANAWKSTLVGHDTFTKVKPSAASHHHHHH

B3: CEA-V2122-FITC: purified CEA-V2122 protein labeled using Fluorescein Labeling Kit—NH2 (protein)
chain: QVKLEQSGAEVVKPGASVKLSCKASGFNIKDSYMHWLRQGPGQRLEWIGWIDPENGDTEYAPKFQGKATFTTDTSANTAYLGLSSLRPEDTAVYYCNEGTPTGPYYFDYWGQGTLVTVSSGGGGSGGGGSGGGGSENVLTQSPSSMSVSVGDRVNIACSASSSVPYMHWLQQKPGKSPKLLIYLTSNLASGVPSRFSGSGSGTDYSLTISSVQPEDAATYYCQQRSSYPLTFGGGTKLEIKGGGGSGGGGAEAGITGTWSDQLGDTFIVTAGADGALTGTYENAVGGAESRYVLTGRYDSAPATDGSGTALGWTVAWKNNSKNAHSATTWSGQYVGGADAKINTQWLLTSGTTNANAWKSTLVGHDTFTKVKPSAASHHHHHH
stained cell images (recognition of CEACAM5) (CEACAM5; 20 nM CEA-V2122-FITC, 4° C. for 30 minutes, CEACAM5-positive MKN-45 vs CEACAM5-negative DLD1 cells, FIG. 5): specifically recognizes CEACAM5 on the surface of the cell membrane
time-series stained MKN45 cell images (localisation after binding) (CEACAM5; MKN45 cells, time-series data, FIG. 6): the CEACAM5 stays on the surface of the cell membrane

— patent US20230149558A1, “DUOCARMYCIN DERIVATIVE AND USE THEREOF” (The University of Tokyo, priority 2020, published 2023)
